Test results as given in US20220143204A1 (LINXIS B V, published 2022).

Columns and labels:
[1] = molecular target: T1, human PDGFRB on SCC VII cells (human, UniProt P09619 33-1106); assay: binding assay of the IRDye800CW conjugate on SCC VII cells transfected with human PDGFRB, fluorescence at 800 nm
T1 construct: whole, on cells; also called hPDGFRB; SCC-hPDGFRB
Experimental: (§1) Based on their high affinity and binding to non-overlapping hPDGRB epitopes, VHHs SP02P, SP12P SP14P and […] were selected for the design of biparatopic VHH constructs and produced in a similar way as described in example 6.1. (FIG. 15A). The binding affinities of the biparatopic constructs were determined with an ELISA assay with the periplasm (FIG. 15A). Moreover, based on their high affinity and binding to non-overlapping rPDGRB epitopes, VHHs SP26P and SP28P were selected for the design of a biparatopic VHH construct and produced in a similar way as described in example 6.1. The formed biparatopic SP28P-SP26P was conjugated to IRDye800CW (SP28P-SP26P-IRDye800CW conjugation method as described in example 9.2) and subjected to a binding assay SCC VII cells transfected with hPDGFRB, rPDGFRB or hIGF2R were performed (FIG. 15B). […] In order to create a biparatopic VHH construct which is cross-reactive for hPDGFRB and rPDGFRB, VHH SP02P binding to hPDGFRB and VHH SP026P binding to rPDGFRB were selected and the biparatopic construct SP02P-SP26P was produced in a similar way as described in example 6.1. (FIG. 15C). Construct SP02P-SP26P was conjugated to IRDye800CW (SP02P-SP26P-IRDye800CW, conjugation method as described in example 9.2) and subjected to bindings assays on SCC VII cells transfected with hPDGFRB, rPDGFRB or hIGF2R were performed (FIG. 15C).

[2] = molecular target: T1, human PDGFRB on SCC VII cells; assay: binding assay on SCC VII cells transfected with hPDGFRB
Experimental: as §1

[3] = molecular target: T2, human PDGFRB extracellular domain (human, UniProt P09619 33-532); assay: binding assay on immobilised human PDGFRB ectodomain, apparent affinity (Example 4)
T2 construct: extracellular domain; also called hPDGFRB-ECD; human PDGFRB ectodomain

[4] = molecular target: T3, human PDGFRB on LX-2 cells (human, UniProt P09619); assay: binding assay on the human hepatic stellate cell line LX-2 (Example 4)
T3 construct: full-length receptor on the cell surface; The list has human PDGFRB only on SCC VII cells

[5] = molecular target: T1, human PDGFRB on SCC VII cells; assay: binding assay on SCC VII cells transfected with human PDGFRB-GFP, VHH detected with anti-VHH rabbit serum and IRDye800CW secondary antibody; binding in % (n=6) [left panel]
Experimental: (§2) FIG. 9. Binding of selected VHHs on SCC VII cells transfected with either the human or rat PDGFRB receptor (SCC-hP or SCC-rP) fused to GFP. The VHH is detected using anti-VHH rabbit serum and donkey-anti-rabbit secondary antibody labelled with IRDye800CW.
(§3) The results are summarized in FIGS. 5 and 6 for the hPDGFRB and rPDGFRB VHHs, respectively. […] Moreover, the binding affinities of the hPDGFRB VHHs human were also determined on the human hepatic stellate cell (HSC) line LX-2 (FIG. 5).

[6] = molecular target: T1, human PDGFRB on SCC VII cells; assay: binding assay on SCC VII cells transfected with human PDGFRB (Example 4)
[7] = molecular target: T4, rat PDGFRB extracellular domain (rat, UniProt Q05030 32-531); assay: binding assay on immobilised rat PDGFRB ectodomain, apparent affinity (Example 4)
T4 construct: extracellular domain; also called rPDGFRB-ECD; rat PDGFRB ectodomain
T4 sequence (looked up): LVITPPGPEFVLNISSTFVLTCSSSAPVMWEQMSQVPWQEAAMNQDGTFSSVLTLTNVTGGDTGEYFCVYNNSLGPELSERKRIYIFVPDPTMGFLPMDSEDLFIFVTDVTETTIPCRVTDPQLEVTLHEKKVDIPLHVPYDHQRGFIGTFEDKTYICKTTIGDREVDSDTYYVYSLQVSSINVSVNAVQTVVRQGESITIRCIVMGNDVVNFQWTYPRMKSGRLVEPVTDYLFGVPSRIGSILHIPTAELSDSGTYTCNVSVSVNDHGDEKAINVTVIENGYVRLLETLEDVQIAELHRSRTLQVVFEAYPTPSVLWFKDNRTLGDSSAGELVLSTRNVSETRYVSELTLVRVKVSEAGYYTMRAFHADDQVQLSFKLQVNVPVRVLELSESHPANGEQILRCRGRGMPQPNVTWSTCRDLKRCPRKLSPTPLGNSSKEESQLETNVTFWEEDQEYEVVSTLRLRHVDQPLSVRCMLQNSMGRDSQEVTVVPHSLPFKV

[8] = molecular target: T5, rat PDGFRB on SCC VII cells (rat, UniProt Q05030 32-1097); assay: binding assay on SCC VII cells transfected with rat PDGFRB-GFP, VHH detected with anti-VHH rabbit serum and IRDye800CW secondary antibody; binding in % (n=2) [right panel]
T5 construct: whole, on cells; also called rPDGFRB; SCC-rPDGFRB
Experimental: as §2, §3

[9] = molecular target: T5, rat PDGFRB on SCC VII cells; assay: binding assay on SCC VII cells transfected with rat PDGFRB (Example 4)
PDGFRB ECD = assay: competition ELISA on PDGFRB ECD: unconjugated competitor titrated against SP26P-IRDye800, fluorescence at 800 nm
Experimental: Competition ELISAs were carried out to determine whether the hPDGFRB specific binders (FIG. 5) and rPDGFRB specific binders (FIG. 6) recognize distinct epitopes on hPDGFRB or rPDGFRB, respectively. The hPDGFRB binding VHHs SP02P, SP05P, SP12P and SP14P and the rPDGFRB binder SP26P were conjugated to IRDye800CW (VHH-IRDye800CW, conjugation method as described in example 9.2) and each conjugated VHH was mixed with unconjugated competitor in trifold serial dilutions and incubated on immobilized […]. Two VHHs share (part of) the same epitope when the fluorescence signal of the VHH-IRDye800CW decreases upon increasing concentration of unconjugated VHH. Furthermore, using a similar method as described in section 5.1, binding epitope competition between the hPDGFRB binding VHH SP02P and rPDGFRB binding VHH SP26P was performed. No competition was observed between the two VHHs qualifying them as building blocks for biparatopic binding molecules (FIG. 11).

[10] = molecular target: T2, human PDGFRB extracellular domain; assay: binding and competition assays of Examples 4 and 5
rat IGF2R on cells = molecular target: T6, rat IGF2R on cells (rat, UniProt A0A8I6GLL6 43-2479); assay: binding assay on SCC VII cells over-expressing rat IGF2R
T6 construct: whole, on cells; also called rIGF2R
Experimental: (§4) To determine whether 13F11-13E8 is cross-reactive against rIGF2R, the construct was conjugated to IRDye800CW (13F11-13E8-IRDye800CW, conjugation method as described in example 9.2) and the binding affinity was determined using a binding assay on SCC VII cells over-expressing either human, or rat IGF2R (FIG. 12).

human IGF2R on cells = molecular target: T7, human IGF2R on cells (human, UniProt P11717 41-2491); assay: binding assay on SCC VII cells over-expressing human IGF2R
T7 construct: whole, on cells; On SCC VII cells over-expressing human IGF2R, NIH 3T3 2.2 cells transiently transfected with hIGF2R, or A549 cells, as told under assay or readout; also called hIGF2R
Experimental: as §4

T1 sequence (P09619 33-1106): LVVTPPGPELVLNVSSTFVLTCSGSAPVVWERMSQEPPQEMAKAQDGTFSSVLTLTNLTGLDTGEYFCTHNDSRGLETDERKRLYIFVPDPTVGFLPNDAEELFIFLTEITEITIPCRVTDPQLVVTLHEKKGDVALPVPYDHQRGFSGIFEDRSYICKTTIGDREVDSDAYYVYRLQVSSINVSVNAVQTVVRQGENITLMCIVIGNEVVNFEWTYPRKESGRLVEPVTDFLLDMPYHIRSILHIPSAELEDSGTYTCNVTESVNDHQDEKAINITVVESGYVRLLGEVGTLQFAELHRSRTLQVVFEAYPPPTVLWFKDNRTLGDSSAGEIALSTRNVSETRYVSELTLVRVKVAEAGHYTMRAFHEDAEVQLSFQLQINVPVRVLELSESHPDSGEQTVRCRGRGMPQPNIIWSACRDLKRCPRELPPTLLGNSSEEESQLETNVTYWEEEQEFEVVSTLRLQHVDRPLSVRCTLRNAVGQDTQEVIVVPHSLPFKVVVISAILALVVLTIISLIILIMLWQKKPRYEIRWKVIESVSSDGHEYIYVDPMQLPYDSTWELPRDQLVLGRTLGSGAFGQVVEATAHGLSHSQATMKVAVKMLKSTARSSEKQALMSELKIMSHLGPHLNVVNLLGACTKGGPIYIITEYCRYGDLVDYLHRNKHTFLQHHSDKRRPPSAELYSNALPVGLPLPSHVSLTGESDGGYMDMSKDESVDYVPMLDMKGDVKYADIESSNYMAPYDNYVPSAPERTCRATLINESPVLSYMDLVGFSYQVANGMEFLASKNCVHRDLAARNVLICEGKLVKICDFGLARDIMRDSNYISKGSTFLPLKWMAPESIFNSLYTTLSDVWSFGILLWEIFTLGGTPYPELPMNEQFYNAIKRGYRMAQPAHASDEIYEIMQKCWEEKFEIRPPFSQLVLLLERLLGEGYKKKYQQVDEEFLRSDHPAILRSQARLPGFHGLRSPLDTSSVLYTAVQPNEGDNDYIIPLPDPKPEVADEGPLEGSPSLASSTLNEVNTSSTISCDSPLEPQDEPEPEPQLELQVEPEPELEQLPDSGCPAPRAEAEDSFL
T2 sequence (P09619 33-532): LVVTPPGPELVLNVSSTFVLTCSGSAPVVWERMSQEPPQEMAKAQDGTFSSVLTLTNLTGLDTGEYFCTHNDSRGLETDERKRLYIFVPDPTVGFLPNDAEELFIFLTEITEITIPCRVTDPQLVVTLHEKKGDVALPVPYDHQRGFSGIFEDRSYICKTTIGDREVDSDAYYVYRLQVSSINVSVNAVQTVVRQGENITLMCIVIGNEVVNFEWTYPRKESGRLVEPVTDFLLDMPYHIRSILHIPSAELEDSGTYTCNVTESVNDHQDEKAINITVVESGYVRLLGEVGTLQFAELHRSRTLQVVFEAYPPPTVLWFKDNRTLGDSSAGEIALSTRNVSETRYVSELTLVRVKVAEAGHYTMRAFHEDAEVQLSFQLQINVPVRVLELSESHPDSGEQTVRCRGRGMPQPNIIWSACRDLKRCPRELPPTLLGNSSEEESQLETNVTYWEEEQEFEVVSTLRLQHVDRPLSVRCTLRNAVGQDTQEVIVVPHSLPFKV
T3 sequence (P09619 33-1106 limits assumed): as the sequence (P09619 33-1106) above
T7 sequence (P11717 41-2491): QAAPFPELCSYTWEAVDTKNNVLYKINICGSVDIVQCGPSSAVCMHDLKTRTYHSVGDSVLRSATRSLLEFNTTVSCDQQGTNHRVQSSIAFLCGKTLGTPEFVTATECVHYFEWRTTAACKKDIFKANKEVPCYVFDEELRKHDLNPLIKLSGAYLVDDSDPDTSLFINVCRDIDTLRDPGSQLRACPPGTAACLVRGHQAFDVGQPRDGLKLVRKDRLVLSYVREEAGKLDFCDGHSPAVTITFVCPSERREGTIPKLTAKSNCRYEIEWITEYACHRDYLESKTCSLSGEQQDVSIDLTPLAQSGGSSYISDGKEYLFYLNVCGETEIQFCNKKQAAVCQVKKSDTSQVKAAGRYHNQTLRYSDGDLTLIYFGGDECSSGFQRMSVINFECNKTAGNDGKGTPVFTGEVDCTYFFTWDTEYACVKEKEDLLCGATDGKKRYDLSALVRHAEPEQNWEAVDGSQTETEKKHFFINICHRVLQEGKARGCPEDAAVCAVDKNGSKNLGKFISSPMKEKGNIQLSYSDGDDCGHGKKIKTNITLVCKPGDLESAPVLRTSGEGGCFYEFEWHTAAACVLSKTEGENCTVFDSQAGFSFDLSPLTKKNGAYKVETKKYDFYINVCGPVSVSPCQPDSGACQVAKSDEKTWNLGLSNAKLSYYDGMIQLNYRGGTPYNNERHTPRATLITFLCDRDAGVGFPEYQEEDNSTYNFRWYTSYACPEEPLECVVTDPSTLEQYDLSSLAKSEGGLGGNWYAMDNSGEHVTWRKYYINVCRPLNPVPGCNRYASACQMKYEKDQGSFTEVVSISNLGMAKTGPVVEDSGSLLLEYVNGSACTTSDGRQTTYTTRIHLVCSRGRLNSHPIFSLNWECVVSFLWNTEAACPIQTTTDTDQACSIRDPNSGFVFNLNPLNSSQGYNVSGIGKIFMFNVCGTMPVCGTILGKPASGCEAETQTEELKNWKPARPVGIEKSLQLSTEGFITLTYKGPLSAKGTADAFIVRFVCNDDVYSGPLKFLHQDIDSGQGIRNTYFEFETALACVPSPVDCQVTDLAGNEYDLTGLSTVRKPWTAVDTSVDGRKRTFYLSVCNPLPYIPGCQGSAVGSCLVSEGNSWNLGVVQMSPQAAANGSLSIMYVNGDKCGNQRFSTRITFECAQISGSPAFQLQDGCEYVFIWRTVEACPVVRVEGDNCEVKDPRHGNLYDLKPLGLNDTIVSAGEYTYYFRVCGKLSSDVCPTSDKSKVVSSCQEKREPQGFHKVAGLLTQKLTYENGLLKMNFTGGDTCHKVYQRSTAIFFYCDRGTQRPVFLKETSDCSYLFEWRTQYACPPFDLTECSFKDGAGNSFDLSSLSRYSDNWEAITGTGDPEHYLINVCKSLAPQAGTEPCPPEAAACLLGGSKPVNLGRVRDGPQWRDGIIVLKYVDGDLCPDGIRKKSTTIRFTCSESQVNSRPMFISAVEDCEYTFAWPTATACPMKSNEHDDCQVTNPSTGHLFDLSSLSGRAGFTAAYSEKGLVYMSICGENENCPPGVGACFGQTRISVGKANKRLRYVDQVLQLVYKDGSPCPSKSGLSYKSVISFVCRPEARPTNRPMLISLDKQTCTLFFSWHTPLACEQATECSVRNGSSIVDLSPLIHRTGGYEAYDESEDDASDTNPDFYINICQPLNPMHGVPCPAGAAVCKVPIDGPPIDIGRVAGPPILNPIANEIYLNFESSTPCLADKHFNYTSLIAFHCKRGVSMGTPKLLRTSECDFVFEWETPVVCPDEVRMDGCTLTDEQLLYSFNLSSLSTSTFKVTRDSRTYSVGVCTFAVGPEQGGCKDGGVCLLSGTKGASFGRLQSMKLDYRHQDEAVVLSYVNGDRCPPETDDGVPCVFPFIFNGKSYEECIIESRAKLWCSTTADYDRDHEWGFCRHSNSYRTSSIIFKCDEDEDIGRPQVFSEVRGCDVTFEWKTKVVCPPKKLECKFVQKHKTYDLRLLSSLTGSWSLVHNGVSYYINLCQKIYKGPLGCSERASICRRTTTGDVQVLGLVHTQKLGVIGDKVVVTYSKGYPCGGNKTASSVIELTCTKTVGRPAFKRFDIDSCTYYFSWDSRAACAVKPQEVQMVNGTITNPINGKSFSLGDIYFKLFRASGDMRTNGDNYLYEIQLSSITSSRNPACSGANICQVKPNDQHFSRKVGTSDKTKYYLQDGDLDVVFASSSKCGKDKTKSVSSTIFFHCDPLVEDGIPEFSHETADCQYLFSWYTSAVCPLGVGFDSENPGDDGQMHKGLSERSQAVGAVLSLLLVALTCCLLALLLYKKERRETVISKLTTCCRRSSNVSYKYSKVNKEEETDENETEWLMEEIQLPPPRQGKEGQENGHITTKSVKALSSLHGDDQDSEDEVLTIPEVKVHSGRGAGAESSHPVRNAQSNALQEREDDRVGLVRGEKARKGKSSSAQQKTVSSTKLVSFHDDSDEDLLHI
PDGFRB ECD, sequence (P09619 33-532): as the sequence (P09619 33-532) above

B1: SP28P-SP26P-IRDye800CW (VHH, not shown: small tags and cut ends)
chain: EVQLVESGGGLVQAGGSLRLSCAASGSIVSFNGINWYRQAPGKQREWVGGITQGGNTMYADSVRGRFTISRDNTKNTMYLQMNSLKPEDTAVYYCRRPPVASWGQGTQVTVSSGGGGSGGGGSGGGGSEVQLVESGGGLVQAGGSLRLSCAASGRSFSSSVMGWFRQTPGKEREFVAATRWTAASTHYADSVKGRFTISRDHAENAVFLQMNSLKPEDTAVYYCAAGNYLDTAQYRYNYWGQGTQVTVSS
modifications: IRDye800CW by maleimide chemistry on the C-terminal free cysteine
notes: Biparatopic tandem VHH; also called SP28-SP26P; SP28-26P
Kd [1]: 32.4 nM

B2: SP02P-SP26P-IRDye800CW (VHH, not shown: small tags and cut ends)
chain: EVQLVESGGGLVQAGGSLRLSCAASESISSIEQMGWFRQAPGKQRALVAINTYGGRTVYTNSVEGRFTMSRDSAKNMVYLQMTSLEPEDTAVYYCYAQTTAWRGGVWGQGTQVTVSSGGGGSGGGGSGGGGSEVQLVESGGGLVQAGGSLRLSCAASGRSFSSSVMGWFRQTPGKEREFVAATRWTAASTHYADSVKGRFTISRDHAENAVFLQMNSLKPEDTAVYYCAAGNYLDTAQYRYNYWGQGTQVTVSS
modifications: IRDye800CW by maleimide chemistry on the C-terminal free cysteine
notes: Biparatopic tandem VHH
Kd [1]: 2.2 nM | Kd [2]: < 5 nM

B3: SP02P (VHH)
VHH: EVQLVESGGGLVQAGGSLRLSCAASESISSIEQMGWFRQAPGKQRALVAINTYGGRTVYTNSVEGRFTMSRDSAKNMVYLQMTSLEPEDTAVYYCYAQTTAWRGGVWGQGTQVTVSS
notes: Llama VHH; on phage in the phage ELISA
Kd [3]: 6.2 nM | Kd [4]: 6.7 nM | EC50 (read off the curve) [5]: ~4 nM | Kd [6]: 4.1 nM

B4: SP28P (VHH)
VHH: EVQLVESGGGLVQAGGSLRLSCAASGSIVSFNGINWYRQAPGKQREWVGGITQGGNTMYADSVRGRFTISRDNTKNTMYLQMNSLKPEDTAVYYCRRPPVASWGQGTQVTVSS
notes: as for B3
Kd [7]: 6 nM | EC50 (read off the curve) [8]: ~0.6 nM | Kd [9]: 0.5 nM

B5: SP26P (VHH)
VHH: EVQLVESGGGLVQAGGSLRLSCAASGRSFSSSVMGWFRQTPGKEREFVAATRWTAASTHYADSVKGRFTISRDHAENAVFLQMNSLKPEDTAVYYCAAGNYLDTAQYRYNYWGQGTQVTVSS
notes: Llama VHH; on phage in the phage ELISA; also called SP026P
IC50 (read off the curve) (PDGFRB ECD): ~40 nM | binding result [10]: binds

B6: 13F11-13E8-IRDye800CW (VHH, not shown: small tags and cut ends)
chain: EVQLVESGGRLVQPGDSLRLSCAASGRTFSDNAMGWFRQAPGKERRFVAGISWAGGSTYYSDSVKGRFTISRDNAKNTVYLQMNSLKPEDTAVYYCAAGLRAWVQRMPKDYNYWGQGTQVTVSSGGGGSGGGGSGGGGSEVQLVESGGGLVQAGGSLRLSCAASRSISPMGWYRQAPGKQRELVAIMPSSGPPIYADSVQGRFTISRDNAKNTVYLQMNSLKPEDTAVYYCNVGGGYWGQGTQVTVSS
modifications: IRDye800CW by maleimide chemistry on the C-terminal free cysteine
notes: Biparatopic tandem VHH; also called IRD800CW conjugated 13F11-13E8; F11E8
Kd (rat IGF2R on cells): < 10 nM | Kd (human IGF2R on cells): < 10 nM
